Test results from US20240076389A1.
pEC50: −log10 of the molar value.

Columns and labels:
[1] = target: huTyro3-ECD displayed on yeast (human) (UniProt Q06418); assay: yeast surface display ELISA, non-denatured yeast, goat anti-human F(ab')2-HRP
[2] = target: cyAXL-ECD displayed on yeast; assay: as above
[3] = target: huAXL-ECD displayed on yeast (human) (UniProt P30530); assay: as above
[4] = target: huMER-ECD displayed on yeast (human) (UniProt Q12866); assay: as above
[5] = target: recombinant human AXL extracellular domain, C-terminally His8-tagged (rhAXL-ECD) (human) (UniProt P30530); assay: ELISA on coated AXL ECD (100 ng/well)
Chain of recombinant human AXL extracellular domain, C-terminally His8-tagged (rhAXL-ECD) (human) (P30530 other isoform, or with tags, fused parts or gaps limits assumed): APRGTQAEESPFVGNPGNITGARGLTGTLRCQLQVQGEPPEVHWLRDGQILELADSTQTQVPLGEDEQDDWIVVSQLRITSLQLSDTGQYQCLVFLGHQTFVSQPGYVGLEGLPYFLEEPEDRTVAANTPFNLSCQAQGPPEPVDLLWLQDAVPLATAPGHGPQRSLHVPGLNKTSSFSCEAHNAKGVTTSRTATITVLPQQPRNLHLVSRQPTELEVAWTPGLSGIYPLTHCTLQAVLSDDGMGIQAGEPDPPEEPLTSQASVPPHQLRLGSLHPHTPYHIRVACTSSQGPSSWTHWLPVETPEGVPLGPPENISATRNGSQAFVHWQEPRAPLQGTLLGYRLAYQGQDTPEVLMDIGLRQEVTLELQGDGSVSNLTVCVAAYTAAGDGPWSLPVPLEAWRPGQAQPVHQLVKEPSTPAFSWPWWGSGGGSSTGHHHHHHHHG

[6] = target: mouse AXL extracellular domain (Sino cat. 51026-M08H) (mouse) (UniProt Q00993); assay: ELISA on coated AXL ECD (100 ng/well)
Chain of mouse AXL extracellular domain (Sino cat. 51026-M08H) (mouse) (Q00993 19-445, stated change not applied): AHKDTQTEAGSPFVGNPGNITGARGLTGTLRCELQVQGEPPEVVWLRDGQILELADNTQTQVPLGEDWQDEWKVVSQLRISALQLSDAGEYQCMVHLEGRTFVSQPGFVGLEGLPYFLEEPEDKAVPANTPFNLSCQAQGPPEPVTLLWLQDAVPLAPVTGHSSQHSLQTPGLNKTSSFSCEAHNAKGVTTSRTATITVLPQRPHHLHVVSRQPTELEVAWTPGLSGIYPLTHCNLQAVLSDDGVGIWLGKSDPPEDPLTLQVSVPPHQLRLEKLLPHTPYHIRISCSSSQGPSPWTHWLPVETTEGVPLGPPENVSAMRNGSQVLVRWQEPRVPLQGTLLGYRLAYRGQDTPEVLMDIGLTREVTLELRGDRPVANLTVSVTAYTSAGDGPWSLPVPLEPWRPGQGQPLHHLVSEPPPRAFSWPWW

Chain of huAXL-ECD displayed on yeast (human) (P30530 26-449, form in doubt): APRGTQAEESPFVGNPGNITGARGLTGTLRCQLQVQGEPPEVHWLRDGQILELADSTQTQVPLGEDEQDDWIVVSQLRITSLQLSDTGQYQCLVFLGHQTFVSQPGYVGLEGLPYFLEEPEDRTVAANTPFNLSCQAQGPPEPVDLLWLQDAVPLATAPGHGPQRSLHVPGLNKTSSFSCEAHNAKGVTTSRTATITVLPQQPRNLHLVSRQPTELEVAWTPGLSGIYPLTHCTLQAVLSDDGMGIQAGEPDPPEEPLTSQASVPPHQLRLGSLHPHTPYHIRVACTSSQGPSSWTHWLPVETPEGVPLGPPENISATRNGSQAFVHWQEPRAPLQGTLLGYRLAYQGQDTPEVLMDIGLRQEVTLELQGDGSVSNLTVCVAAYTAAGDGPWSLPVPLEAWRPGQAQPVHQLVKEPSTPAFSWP
Chain of huMER-ECD displayed on yeast (human) (Q12866 21-505): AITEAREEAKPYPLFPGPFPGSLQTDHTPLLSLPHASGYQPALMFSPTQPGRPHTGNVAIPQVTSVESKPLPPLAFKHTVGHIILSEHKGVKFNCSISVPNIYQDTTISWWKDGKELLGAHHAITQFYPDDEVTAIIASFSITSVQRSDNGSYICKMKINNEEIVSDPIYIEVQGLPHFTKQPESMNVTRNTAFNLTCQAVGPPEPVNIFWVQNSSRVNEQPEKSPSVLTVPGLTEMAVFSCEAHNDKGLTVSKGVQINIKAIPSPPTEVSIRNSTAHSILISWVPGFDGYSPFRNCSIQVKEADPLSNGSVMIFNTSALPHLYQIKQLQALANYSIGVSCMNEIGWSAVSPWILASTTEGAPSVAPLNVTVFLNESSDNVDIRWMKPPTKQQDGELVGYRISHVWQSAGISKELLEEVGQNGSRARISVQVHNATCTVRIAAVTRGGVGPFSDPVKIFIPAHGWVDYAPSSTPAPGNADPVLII
Chain of huTyro3-ECD displayed on yeast (human) (Q06418 41-429): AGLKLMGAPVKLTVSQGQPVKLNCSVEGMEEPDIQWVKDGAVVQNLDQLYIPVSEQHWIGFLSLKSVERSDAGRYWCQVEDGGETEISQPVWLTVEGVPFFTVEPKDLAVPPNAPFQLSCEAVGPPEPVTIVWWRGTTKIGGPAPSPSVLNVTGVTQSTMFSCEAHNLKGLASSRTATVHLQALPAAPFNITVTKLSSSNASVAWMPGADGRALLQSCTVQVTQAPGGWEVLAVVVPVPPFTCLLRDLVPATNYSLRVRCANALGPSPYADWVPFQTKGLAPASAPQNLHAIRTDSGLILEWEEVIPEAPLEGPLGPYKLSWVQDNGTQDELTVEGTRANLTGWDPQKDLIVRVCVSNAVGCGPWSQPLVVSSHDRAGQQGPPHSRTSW

Substance	yeast ELISA signal normalized to myc expression level [1]	yeast ELISA signal normalized to myc expression level [2]	yeast ELISA signal normalized to myc expression level [3]	yeast ELISA signal normalized to myc expression level [4]	pEC50 [5]	pEC50 [6]
hFC-anti-RSV (antibody)	0.059	-0.004	0.087	-0.001		
MAB8541 (R&D Systems), commercial anti-mouse AXL mAb, clone 175128, rat IgG2A (antibody)					7.21	9.00
